Assay: purified protein yield per well (BCA); higher = higher soluble expression
Description: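 Candidate PET hydrolases were expressed in E. coli C41(DE3) in 2 mL autoinduction cultures in 24-deep-well plates, Ni-bead purified and released by SUMO protease cleavage on an OT-2 robot. Yield per well was measured by BCA; values below 25 ug (0.1 mg/mL) are below the detection threshold. Melting temperature was measured by differential scanning fluorimetry with Sypro Orange, ramping from 25 C at 0.3 C/step.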

Row | Sequence | purified protein yield per well
1 | ANPYERGPAPTLSSIQATTGPFATATTTVPSGNGFGGGTIYYPTDTSQGTFAAIAMSPGFFNTQSAISWYGKRIASQGFVFLTINTNTILDFPDSRATQLLAALDYLTQSSPVSSLIDSSRLGVMGYSMGGGGTLKASKTRPSLEAAVGVAPWHSTKNWSTNTVPSMMLGMQNDTVAPASSHAIPFYNSLPASIHKVYAEVRGASHSTPTSANTPIAQYSIAFLKQELDNDTRYTQFLCPAPAVGGTNPLSAYSSTCPF [DP067] | < 25 µg
2 | SAAGNNIGHRQGGDTFASATVIEALPFSDSGTTSGFNNDYGPYSNQSSYNICQWQGYYDNTNTGAGPDVVYSLALSEEKTVKISLCGSDYDTGLGVFDGSGVQVLGNDDACSLQSEVVCALPEGLYYIVVDGYSTSSGNYVLNVSIEEDLFGPYSVGTITEDDGLRDGPDYCCGIVYYPTDAVGYLPAIVYIPGYAGTISSNENWGPYLASHGIVTMFVNANFSLASNETRAEALLDGLVTIQDENQRPGSPLYGNLNLNQLAVAGHSRGGGAALLAAAAEPSVNAVLALAPWLEDQFINSTTLDQDVPVLFLSGQLDESAPNDVHTNLFYAYTPETTDKLLYEISGGDHFIVKDPSNNSAMAMKALYWLEKYLTNDPTHC [TEP001] | < 25 µg
3 | FTPSPDPTPDPEPTPEPCQGDCDFTRGPDPSISYLEADNGPYTVRTIDVPSSAGSFNGGTIHYPSGTSGTMGAIAVASGFLAPEGDIIWWGPRLASHGFVVITISTPTFDGEDRRATQLSEALDYVIAQSNSNGSDISGMVDGSRLGAMGWSMGGGGTLQLASGTRLSAAIPLAPWNSGSNNFDQIETPTLIIACENDGTAAVGTHASPFYHSIPASTDKAFLEINGGGHSCANGGGTNGGLLGKYGVSWMKLFMDDDSRYSQFLCGPNHAANSAISEYRDTCNY [DP049] | < 25 µg
4 | QTNPYERGPAPTTSSLEASRGPFSYQSFTVSRPSGYRAGTVYYPTNAGGPVGAIAIVPGFTARQSSINWWGPRLASHGFVVITIDTNSTLDQPDSRSRQQMAALSQVATLSRTSSSPIYNKVDTSRLGVMGWSMGGGGSLISARNNPSIKAAAPQAPWSASKNFSSLTVPTLIIACENDTIAPVNQHADTFYDSMSRNPREFLEINNGSHSCANSGNSNQALLGKKGVAWMKRFMDNDRRYTSFACSNPNSYNVSDFRVAACN [ESM158] | < 25 µg
5 | DSPYERGPDPTERSIEATRGPFSVSTISVSDFSTPGFGAANITYPTSRSEGTFGVVAISPGYTAGESTIAWLRPRIASQGFVVISFDTNSRTDFPSSRGDQLLAALDYVIEDSSVRDRVDGSRQAVMGHSMGGGGSLEAASDRRSIEAVVGLTPWNSDKTWSEVDAASLMIGAENDSVAPARTHAIPFYNSLTGAEDRAYLELDGASHLAPTFSNTEIAKYSISWLKRFVDDDDRYDQFLCPAPSTGFGSPLSDSRVSCPLG [DP098] | < 25 µg
6 | QTTAPTSASLNATAGPLSIASASVSSLAASGFGGGTIYYPTTSGRFGVVAISPGYTASQSTIAWLGRRMASHGFVVITIDTNTTLDYPESRATQLRAALDHVINRASTTVRNKVDPARRAVAGHSMGGGGSLIAAEADSTLKAAYPMTPWNISENFSRVRVPTMIIGADGDTIAPVISHARPFYGSIPNTTFKAYGELNNASHFAPNTTNTPIGRYGVAWMKRFVDGDTRYSTFLCGAEHNRYNTSLVFDQYRSNCPY [ESM079] | < 25 µg
7 | DANPYQRGPAPTESSVAAEKGPFAVAQTDVPAGSGQGFNDGTIYYPTDTSQGTFGAVVVMPGFVSPQEWIRWYGPLLASQGFVVMTLDSNTLLDFPGARGDQILAALDYLTTKSKVVDRIDTGRLAVMGWSMGGGGTLEAAAERPSLKADIALAPWDLDNVAAKVKVPSMIIADDTDILAPTGVFAKPFYDAMSTAPDKAFFELKSANHFTFTSYNKTIAKYAVSWLKRFVDDDTRYDQFLCPKPAPSNEITQFEETCPLG [TEP059] | < 25 µg
8 | ITPPPDDDGNNGGGDTCQQDCGFERGPNPTVASLESRSGPFSVRTSSVSSRVSGFGGGTIHYPTGQTGTMGAIVVIPGFVSAESSIAWWGTQLAAHGFVVMTIDTNSGTDQPPSRARQINAALDYLVSQNTASGSPVRGMIDPSRLGVAGWSMGGGGTLRVATEGRIKAAMPLAPWDTGSTQFRSVKAQTLIFACESDAIAPVNSHASPFYNALPNNINKAFVEISRGSHYCANGGNSNNSLLSRLGVSWMKLHLDQDQRYNQFICGPRHESDRSISEYRGNCSN [ESM115] | < 25 µg
9 | AENPYERGPDPTESSIEASRGSFAVSQTSVSSLAVIGFGGGTIYYPTSTAQGTFGAVAISPGFTATQSSIAWIGPRLASQGFVVFTIDTNTIYDQPDSRGDQLLAALDYLTQRSDVRSRIDTSRLAVAGHSMGGGGSLEAAQDRPSLQAAVPLAPWNTQKSWSSLRVPTFIIGGESDTVAPVASHSIPFYTSIPASAEKAYMELDNASHFFPNTANTTMAKYTISWLKRFVDNDTRYEQFLCPAPDDRTISDYRDTCPHA [TEP129] | < 25 µg
10 | FSFTPPPEPNPDPDPTPPCEVDCDFTRGPDPSSSYLEAASGPYSVNTINVSSSVSGFGGGTVYYPTGTSGLMGAISIAPGFFAAESSIGWWGPRLASHGFVVITIATNSIFDGTDSRATQLDRALDYVINQSNSGSSAISGMVDSNRVGAMGWSMGGGGSLILGSGTRLSAVIPLAPWESGSNNFDQMTAPTLIIACENDGTAPVASHASPFYNTIPGTTDKAFLEINGGGHSCANGGGVNG [ESM098] | < 25 µg
11 | QDNSQGRYRPEGRQVGLAIGREFDERLYEVRTYEPEVGAEAFAGAMVFYPLTLSFDPPNGAVAFVPGFRAPASVYEWWGPALASLGYSVFILETNTPTDALAARADALIAAVDLIKAENQNPDAPVANKIDPEKIAIMGHSMGGGASLVAATQMGDSIKAVIPLALYCCEPGQSFSGDYGSLTLPTMIIASAEDEVAPPAEHAKLLYDSIGGSKTYVEFARGDHMFISNSGDQKATLGRFVLAFLKDILDGR [TEP019] | < 25 µg
12 | HAPAPQPVVVHHHAPFAVRTTVVPKTAVKAFGGGVIYTPQDTGKPVLGAVVITPGFTNTNADEKELGQLVASQGFVAFVIDTLDTGDLPAQRATEILAATDYLTGQSAVRSEVSAKDVGLIGYSFGGGGTMQAAQSRPSIKAAIGLMPFDVPPASDPHALYATYPKLTTPTLVITGQKDEVARPKDFGKPAYDSIPAGTPKQYLELKGLDHSAGEHAPVAAIRNAVTAFLKRYLDGNSAYAKFICPAPKVGGPISVSLSSCPKG [ESM155] | < 25 µg
13 | CDSILSQSLTNTGPYNVLSINESDGIRNGQHYNGATIFYPEGNLTNLASMVFVPGYSNTQLSIQNWGFFLASHGIVTMTIGTNSLLDSHIKRKDALLDALVTVKQENVRVSSPLYNSLDTLKLALGGFSKGGGGAQLAASVGQNIKAIIALYPWLENISSSDLNHNVPVLIVSGSLDIIAPPSLHADVHYMYTPQTTNKLKYELAFGTHDPLTGPNAGSGEVGKKTLSWLQTFLLSDTCFCPYLLDTPNNASIYMSNLNCTEIGTNTNNLQSNTEKKLVKIIDVFGREVSPKKNMILFYVYDNQSVKKIIIK [TEP094] | < 25 µg
14 | QTSDPTSTSLNATSGPLSISSTSVSSFSARGFGGGTIYYPSASGRYGVVAISPGYTARQSSIAWLGRRLASHGFVVITIDTNSTLDQPPSRATQLMAALDHVVNRASSTVRSRVDAARLAVAGHSMGGGGSLIAARDNPSLRAVYPMTPWSVSKDFSAVRVPTMIIGADNDSVASVVTHARPFYSSLAASLPKAYGELNNASHFAPNTTNTPIGRYAVTWMKRFVDGDTRYSPFLCGTPHNQYATSQVFARYQQNCPY [ESM134] | < 25 µg
15 | QSNPYQKGPDPTHASIEADGPYAVSTQALKGSGFGSGTVYSPNAAGSYALVAVCPGFVSAQSSIAQISRRLATHGFVVVTIDTNTIFDFPDSRSTQLLAALKAVAALSTGPAAGKIDTARQAVAGWSMGGGGTLLAAGSTPALKGAVAYAPWALNNNLKASKVPAAILGGTADIVAPPGIFADVFYKAIPAGSSKLLGIVKGADHFFSNTASQPASYTTVAWFKRFVDNDTRYGPFLNGDTRYSRFSYTGPF [TEP040] | < 25 µg
16 | AENPYQRGPDPTPASVSANRGSFATTQVSVPSGNGFGGGIIYYPTDTSQGKFGAIAIVPGYTATWAAEGAWMGHWLASFGFVVIGIDTNNRNDWDNARGQQLLAALDYLTQRSSVRDRVDATRAAVMGHSMGGGGAAYASLQRPTLKTSVGLAPASFSQNLTTTRVPTMLLSGQNDGTVTPSSVLNLYNGIPAGVEKAYLELTGAGHGFPTSNNPTMMRVVIPWFKVFIDSDTRYTQFLCPLSNGNGIRSYQSTCPLVPSTPPTSTTTSTTTTTTTTTTTTTTTTSTSTTTTTPQPGGACSAVFRTTNSWPGGYQAEVTVTAGDSGVSGWTTHWTLGSGESVSQVWNGALTVSGSSVSVRNVSYNGSLAPNRSTTFGFIGGGAPPTSPFTCTSP [ESM029] | < 25 µg
17 | AAPAHHAAPAHAAVHHHAPFALRTTVVPRTAVTKFGGGVIYEPRDTGKPVLGAVVITPGFTDTNADEKEYAELVASQGFVAFAIDTLDTGDIPADRATQMLAAVDWLTGSSPVKAEVSPDRVALLGYSFGGGGAMQAAQSRPSIKAVVGMMPFDAPPESDPNATTPAYPRMTTPTLVITGQEDDVADPKYFGKPAYDSIPAGTPKQYLELKGLGHGAGEHMPVPTVRTAVTAFLKRYLDGNSAYGRFICPAPKAVGPISASLSSCPRG [ESM110] | < 25 µg
18 | HAPAHAPAHQPVVAHHHAPFAVRTTVVPKTAVKAFGGGVIYTPQDTGKAVLGAVVITPGFTDTNADEKELAELVASQGFVAFAIDTLDTGDLPDQRATEILAAADYLTGQSAVRSEVSAKDVGLIGYSFGGGGTMQAAQARPSIKAAIGLMPFDFPPASDPNAQYPAYPKLTTPTLVITGQKDDVADPADFGKPAYDSIPGGTPKQYLELKGLDHYAGEHTPVAAIRNAVTAFLKRYLDGNSAYAKLICPAPKVGGPITASYSSCPKG [ESM190] | < 25 µg
19 | APPVAGPYQRGPAPTEEVLVAARGPFAVTQTRMAAGQGTGAGTVHHPTDASQGTFGAVAVMPGFMGTEKSIRLYGPLLASHGFVVLTLSSVRRADFPDQRADQLLAALDRLVAGPAKGLIDAERLAVVGHSMGGGATLRAAARRPGLKAAVPLAPWHVRRDWRSVRVPTLIFGSENDRVAPVDKHAEPFYASLTRAPEKAYVELRDGGHLSFNTANPVIAKYTVSWLKRYVDDDVRYDPFLCPGPAFPSPTIREYRGTCPS [DP060] | < 25 µg
20 | QVGPDPTSASLNATAGPFSVSTASVISPRGFGGGTIYYPTTTGRYGVVAISPGFTATQSSIAWLGRRLATHGLVVITMNTNSTYDQPSSRATQLMAALNYVVNSSSSTVRARVDSSKLAVAGHSMGGGGALIAAENNPTLKASLPLTPWNSSTNFSDVRVPTLIVGADGDSVASVSRHARPFYASLPSNTFKAYAELNGASHFTPNSTSTPIGRYGVAWMKRFVDADTRYSPFLCGAAHQSYATSLVFDRYSQNCPY [ESM125] | < 25 µg
21 | QSYVHGPDPTTAALETTGPYAVSNTKIAAPSGYGGGTVYYPTTNTEGAFAVVSVTPGFTEKQSAINWLGPLLASHGFVVVTIDTKTALDAPSSRAKQMIAALKQVSGLSANSTSPFAGRVDGTRQAVMGHSMGGGGSLDAARDNPTLKASIPMAPWETVKNYSTMTVPTLIVSCESDTIAPVASHANKFYDSFTPTLNKALLEMKGVGHSCTNSTTSAALKAVIGKYSISWLKRFADNDNRYSDFLCGASHQADVSGSLISTYKENCPY [DP066] | < 25 µg

— the supplement of paper PMC12455559
